According to US20160145321A1:

Tests used:
Experiment in all cases: cell-based or functional assay
[1] = molecular target: G protein of RSV A/Long (virus, ATCC Cat. No. VR-26) (Respiratory syncytial virus A/Long) (UniProt P20895)
[2] = molecular target: G protein of RSV A/A2 (virus, ATCC Cat. No. VR-1540) (Respiratory syncytial virus A/A2) (UniProt P03423)
[3] = molecular target: G protein of RSV B/18537 (virus, ATCC Cat. No. VR-1580) (Respiratory syncytial virus B/18537) (UniProt P20896)

Substance: CR9514 (an antibody based on 3D3, comprising the heavy and light chain variable region of 3D3)
- Neutralization IC50 (plaque reduction assay, Vero cells) [1]: 17 ng/mL
- Neutralization IC50 (plaque reduction assay, Vero cells) [2]: 40.7 ng/mL
- Neutralization IC50 (plaque reduction assay, Vero cells) [3]: 33 ng/mL
